Source: the nanobody polyreactivity screen of Harvey et al. (2022)

Assay: yeast display, Sf9 membrane polyspecificity reagent, FACS + sequencing; frameworks hold sequencing errors
How it was run: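 Synthetic nanobody libraries on Saccharomyces cerevisiae BJ5465 were galactose-induced for 36–48 hours, stained 1 hour at 4 °C with 10% biotinylated, detergent-solubilized Sf9 membrane reagent and enriched on streptavidin microbeads. FACS then separated cells into low and high (top ~1%) gates by anti-HA (expression) and streptavidin (reagent binding) fluorescence. Genes were colony-PCR amplified, MiSeq 2 × 250 sequenced and CDR-length filtered. A clone's polyreactivity label is that of its gate of origin.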

| Sequence | polyreactivity (PSR sort gate) |
| --- | --- |
| QVQLVESGGGLVQAGGTLRISCAPSGRIFNTNAMRWYRQAPGKERELVAGITDSGDSTYYADSVKGRFTISRDNAKNTVYLQMISLKPEDTAVYYCATDPASPYIYDYWGQGTQVTVSS | low polyreactivity |
| QVQLVESGGGLVQAGGTLRLICAASGLTFGRYAMGWYRQAPGKERELVASISQRGGSTYYADSVKGRFTISRDNAKNTVYLQMNSLKPEDTAVYYCAARRYYRGEYDYWGQGTQVTVSS | low polyreactivity |
| QVQLVESGGGLVQAGGTLRLNSAASGRNFYDYAMRWYRQAPGKERELVASISGGGSTDYADSVKGRFTISRDNAKNTVDFQMNSLNPEDTAVYYCAAQYYLYRSRFDYWGQGTQVTVSS | high polyreactivity |
| QVQLVESGGGLVQAGGTLRLRCAASGRTFKDYAMGWYRQAPGKERELVAAISWSGGDTYYADSVKGRFTISRDNAKNTVYFQLNSLKPEDTAVYYCNADPSGVFFYSLEFDYWGQGTQVTVSS | low polyreactivity |
| QVQLVESGGGLVQAGGTLRLSCAASGGTFRRYAMGWYRQAPGKERELVAAISWTGGSTYYADSVKGRFTISRDNAKNTVYLQMNSLKPEDSAVYYCAAVGSSSSKGGYWGQGTQVTVSS | high polyreactivity |
| QVQLVESGGGLVQAGGTLRLSCAASGIIFDRNVMGWYRQAPGKERELVAAITRNGGNTYYADSVKGRFTISRDNAKNTVYLQLNSLKPEDTAVYYCNAKYWPFSRWYYFWGQRTQVTVSS | high polyreactivity |
| QVQLVESGGGLVQAGGTLRLSCAASGIIFLVNAMGWYRQAPGKERELVATITSGGSTYADSVKGRFTISRDNAKNTVYLQMNSLKPEDTAVYYCAAVRRRRNSYGYWGQGTQVTVSS | high polyreactivity |
| QVQLVESGGGLVQAGGTLRLSCAASGIIFNYYAMGWYRHAPGKERELVAAITRGGRTNYADSVKGRFTISRDNAKNTVYLQMNSLKPEDTAVYYCNAPAFYKYKSFYAHSGYDYWGQGTQVTVSS | high polyreactivity |
| QVQLVESGGGLVQAGGTLRLSCAASGITFYLNAMGWYRQAPGKERELVADITVSGGSTYYAVSVKGRFTISRDNVKNTVYLQMNSLKPEDTAVYYCAAKYSSGRVLFEHGYWGQGTQVTVSS | low polyreactivity |
| QVQLVESGGGLVQAGGTLRLSCAASGRIFGYNAMGWYRQAPGKERELVAVISTSGTIRYYADSVKGRFTISRVNAKNTVYLQMKSLKPEDTAVYYCAARYYQRANGFGYWGQGTQVTVSS | low polyreactivity |
| QVQLVESGGGLVQAGGTLRLSCAASGRIFTRYAMGWYRQAPGKERELVAAISYGGGVTYYADSVKGRFTISRDNAKNTVYLQMNSLKPEDTAVYYCATDDPLSQINEKGMDYWGQGTQVTVSS | low polyreactivity |
| QVQLVESGGGLVQAGGTLRLSCAASGRILPRNAMGWSRQAPGKERELVAGISSDGSTNYADSVKGRFTISRDNAKNSVYLQMNILKPEDTAVYYCAADGVYDPYVYGYWGQGTQVTVSS | low polyreactivity |
| QVQLVESGGGLVQAGGTLRLSCAASGRTFDTNAMAWYRQAPGKERELVASITWVGGSTYYADSVKGRFTISRDNAKNTVYLQMNSLKPEDTAVYYCNRDRVSGGKYNYWGQGSQVTVSS | low polyreactivity |
| QVQLVESGGGLVQAGGTLRLSCAASGRTFGFYAMGWYRQAPGKERELVAVITRGGYTSYADSVKGRFTISRDNAKNTVYLQMNSLKPEDTAVYYCAAGWHYWDHRYDYWGQGTQVTVSS | high polyreactivity |
| QVQLVESGGGLVQAGGTLRLSCAASGRTFLWNDMGWDRQAPGQERELVAAITGSDGTYADSVKGRFTISRDNAKNTVYLQMNSLKPEDNAVYYCAAETYWFFPWKYDYWGQGTQVTVSS | low polyreactivity |
| QVQLVESGGGLVQAGGTLRLSCAASGRTLHGYAMGWYRQAPGKERELVASITWSGASTYYADSVKGRFTISRDNAKNTVYLQMNSLKPEDTAVYYCAADRSRYVRRRYGYWGQGTQVTVSS | high polyreactivity |
| QVQLVESGGGLVQAGGTLRLSCAASGSIFAGYAMGWYRQAPGKVRELVATITSGGSTNYADSVKGRFTISRDNAKNTVYLQMNSLKPEETAVYYCAADVEDSIATSYTCGEYVYWGQGTQVTVSS | low polyreactivity |
| QVQLVESGGGLVQAGGTLRLSCAASGSIFAVNAMGWYRQAPGKERELVAAISKRGGSTYYADSVKGRFTISRDNAKNTVYLQMNSLKPEDTAVYYCAARILVTYHRDYYYWGLGTQVTVSS | high polyreactivity |
| QVQLVESGGGLVQAGGTLRLSCAASGSIFGNNLMGWYRQAPGKERELVAAISWSGGKNYADSVKGRFTISRDNAKNTVYLEMHCLIPDDSAVYYCAALSVWSYYTYYYWGQGTQVTVSS | high polyreactivity |
| QVQLVESGGGLVQAGGTLRLSCAASGSTFGGYAMGLYRQAPGKERELVAAITWSGDTYYADSVKGRFTISRDNAKNSVYLQMNSLKPEDTAVYYCAAYSRVGPYRYAYWGQGTQVTVSS | high polyreactivity |
| QVQLVESGGGLVQAGGTLRLSCAASGSTFKYYAMGWYRQAPGKEREFVASINWSGVSTYYADSVKGRFTISRDNAKNTVYLQMNSLKPEDTAVYYCAARVRGKYDYWGQGTQVTVSS | high polyreactivity |
| QVQLVESGGGLVQAGGTLRLSCAASGSTFTGNAMGWYRQAPGKERELVAAITIGGSRTYYADSVKGRFTISRDNAKNTVYLQMNSLKPEDTAVYYCAATSRGTDYWGQGTQVTVSS | high polyreactivity |

| Sequence | polyreactivity (PSR sort gate) |
| --- | --- |
| QVQLVESGGGLVQAGGTLRLSCAASGSTFYLYAMGWYRQAPGNERELVAAISSAGGSTYYADSVKGRFTISRVNAKNTVYLQMNSLKPEDTAVYYCTRDIRRRGNYWGQGTQVTVSS | high polyreactivity |
| QVQLVESGGGLVQAGGTLRLSCAASGYTFGVYFMGWYRHAPGKERELVAAISGSTYYADSVKGRFTISRDNAKNTVYLQMNSLKQEDTAVYYCAAESYFFSPRTREKFDYWGQGTQVTVSS | low polyreactivity |
| QVQLVESGGGLVQAGGTLRLSCAATGFTFYEYAMGWYRQAPGKERELVAGIRRSGDSTYYADSVKGRFTISRDNAKNTVYLQMNILKPEDTAVYYCAKGWYRIKRNDYWGQGTQVTVSS | low polyreactivity |
| QVQLVESGGGLVQAGGTLRLSSAASGSIFYRNAMGWYRQAPGKERELVDSITSGGLTNYADSVKGRFTISRDNAKNTVYLHMFSLKPEETAVYYCARGRASYTKSGPTPYTGYGYWGQGTQVTVSS | low polyreactivity |
| QVQLVESGGGLVQAGRSHRLSCAASGFTFAPNAMGWYRQAPGKERELVARIDRAGSTYYADSVKGRFTISRDNAKNTVYLQMNSLKPEVTAVYYCAVVAVLSRPYATKFDYWGQGTQVTVSS | low polyreactivity |
| QVQLVESGGGLVQAGRSHRLSCAASGSIFPVYVMGWYRQAPGKERELVAAISQSSGGTYYADSVKGRFTISRDNATITVYLQMNSLKPEDTAVYYCAARITAIQGQRYYWGQGTQVTVSS | high polyreactivity |
| QVQLVESGGGLVQAGRSLRLICAASGLILFYNAMGWYRQPPGKERELVAVITSGGRTYYADSVKGRFTISRDNAKNTVYLQMNSLKPEDTAVYFCAATYGHPTSYGDGWRYGYWGQGTQVTVSS | low polyreactivity |
| QVQLVESGGGLVQAGRSLRLSCAASGFTFETYAMGWYRQAPGKERELVAAISDGGGDTYYADSVKGRFTISRDNAKNTVYLLMNSLKPEDSAVYYCAAEWDGNWSRGAGGYDYWGQGTQVTVSS | low polyreactivity |
| QVQLVESGGGLVQAGRSLRLSCAASGFTFRGYAMGWYRQAPGKERELVAAISVRGDSTYYADSVKGRFTISRDNAKNTVYLQMNSLKPEDTAVYYCNAALLGKQYYSNPNYDYWGQGTQVTVSS | high polyreactivity |
| QVQLVESGGGLVQAGRSLRLSCAASGITFKLYAMGWYRQAPGKERELVARLSLRGGNTYYADSVKVRFTISRDNAKTTVYLQMNSQNPEDTAVYYCNADLYRQYASRYHYWGQGSQVTVSS | high polyreactivity |
| QVQLVESGGGLVQAGRSLRLSCAASGITLYNYAMGWYRQAPGKERELVAAISLSGGRTYYADSVKGRFTISRDNAKNTVYLQMYSLKPEDTAVYYCAADWLNSDPYNYWGQGTQVTVSS | low polyreactivity |
| QVQLVESGGGLVQAGRSLRLSCAASGNTLRPNGMGWYRPAPGKERELVAAISSGGSTYYADSVKGRFTISRDNAKNTVYLQMNSLKPEDTAVYYCAAEYWYDYWGQGTQVTVSS | low polyreactivity |
| QVQLVESGGGLVQAGRSLRLSCAASGRIFISYTMGWYRPAPGKERELVAGIDSSGTSTYYADSVKGRFTISRDYAKNTVYLQMNSLIPEDTAVYYCNVVGNWKDTSTELDYWGQGTQVTVSS | low polyreactivity |
| QVQLVESGGGLVQAGRSLRLSCAASGRIFRYNTMGWYRQAPGKERELVARINRGGSTNYADSVKGRFTISRDNAKNTVYLQMNSLKAEDTAVYYCNARYTARHYPFSNFDYWGQGTQVTVSS | high polyreactivity |
| QVQLVESGGGLVQAGRSLRLSCAASGRIFSTNAMGRYRQAPGKERELVAAITRSSSTYYAYSVKGRFTISLDNAKNTVYLQINSLKPEDTAGYYCAASRFQYKSTQFYYWGQATQVTVSS | high polyreactivity |
| QVQLVESGGGLVQAGRSLRLSCAASGSIFSTNAMGWYTQAQGKEREFVAAIDITNYEDSVKGRFTISRDNSKNTVDFQMNSVIPEDTAVYSCIADTYSVVREGDYWGQGTQVTVSS | low polyreactivity |
| QVQLVESGGGLVQAGRSLRLSCAASGSIISVYAMGLYRQAPGKERELVADITGTGDTYYADSVKGRFTISRDNAKNTVYLQMNSLIPEDTAVYYCNTVYELYYDPSVTEDYWGQGTQVTVSS | low polyreactivity |
| QVQLVESGGGLVQAGRSLRLSCAASGSILSINGMGWYRQAPGKERELVATIDGSEGSTFYADSVKGRFTISRDNAKNTFYLQLNSVKPEDTAVYYCAAENFWQTKEYDYWGQGKQVTVSS | low polyreactivity |
| QVQLVESGGGLVQAGRSLRLSCAASGSTFDGYAMGWYRQAPGKERELVAAISYSGSSTYYADSVKGRFTNSRDNAKNTVYLQMNSLKPEDTAVYYCAVDDTHPFGPDGGGDYWGQGTQVTVSS | low polyreactivity |
| QVQLVESGGGLVQAGRSLRLSCAASGSTFHPYAMGWYRQAPGKERELVAAINSGDNTYYADSVKGRFTISRDNAKNTVYLQMNSLKPEDTAVYYCAVRYWDESHTEYDYWGQGTQVTVSS | low polyreactivity |
| QVQLVESGGGLVQAGRSLRLSCAASGSTFKYNAMGWYRQAPGKERELVASISRSGGSTYYADSVKGRFTISRDNAKNTVYLQMNSLKPEDTAGYYCNVRRFVHYEYWGQGSQVTVSS | high polyreactivity |
